Values quoted from earlier work as cited in paper PMC8036930.
pKd: −log10 of the molar value.

Molecular target: albumin (Rattus norvegicus) (UniProt P02770)
UniProt P02770, sequence (P02770 25-608): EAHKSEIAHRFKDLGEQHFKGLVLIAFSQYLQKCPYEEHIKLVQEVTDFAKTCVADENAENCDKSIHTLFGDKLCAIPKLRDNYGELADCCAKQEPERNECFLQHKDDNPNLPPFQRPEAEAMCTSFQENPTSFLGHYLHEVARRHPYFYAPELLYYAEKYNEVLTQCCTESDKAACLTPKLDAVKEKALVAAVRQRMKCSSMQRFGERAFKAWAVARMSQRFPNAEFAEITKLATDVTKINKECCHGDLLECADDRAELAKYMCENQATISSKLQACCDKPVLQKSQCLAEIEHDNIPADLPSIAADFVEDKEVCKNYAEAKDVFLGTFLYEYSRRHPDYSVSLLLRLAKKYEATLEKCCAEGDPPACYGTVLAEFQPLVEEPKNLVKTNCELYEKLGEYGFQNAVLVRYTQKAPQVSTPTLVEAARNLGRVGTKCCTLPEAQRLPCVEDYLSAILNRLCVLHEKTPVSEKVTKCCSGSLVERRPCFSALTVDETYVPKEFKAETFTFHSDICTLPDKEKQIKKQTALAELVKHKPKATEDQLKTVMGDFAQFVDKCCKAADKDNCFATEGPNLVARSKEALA

pKd: 6.20
Substance: cubilin (from UniProt O70244)
